# Measured values reported in patent US20160030544A1.
# pKd: −log10 of the molar value.
# Target: fH6-7 (factor H CCP domains 6-7) (UniProt P08603)
# Test: SPR, Biacore 3000, protein on CM5 chip, fH6-7 as analyte
# Sequence of fH6-7 (factor H CCP domains 6-7) (P08603 321-443 limits assumed): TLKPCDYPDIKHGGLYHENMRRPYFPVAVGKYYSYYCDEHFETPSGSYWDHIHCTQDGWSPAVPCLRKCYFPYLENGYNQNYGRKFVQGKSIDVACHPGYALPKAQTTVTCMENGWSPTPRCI
substance,measurement,value
"V3.45 fHbp (variant 3 factor H binding protein of N. meningitidis), recombinant wild type",pKd,9.00
